± gives the uncertainty stated by the source.

The nature of this data set: amyloid nucleation score (Sup35N fusion, yeast selection) (log enrichment); library NNK1; higher = more nucleation; inactive = no reads after selection. An outline of the steps:
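Nucleation score is defined as the DiMSum log enrichment of output over input reads, with centring on the mode score of non-aggregating sequences. A minimum of 100 input reads was required for each sequence. Reads came from Illumina sequencing of plasmid inserts from psi-negative yeast expressing Sup35N fused to peptides of 20 random codons, induced with 100 μM copper sulfate for 24 hours and grown 7 days at 30°C on medium lacking adenine and uracil.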
As to ENKHVGICSGVQFVAFETCY, the amyloid nucleation score result was “inactive”.
The value for PSSHWIAPNFVVN was “inactive”.
Turning to GIKRHIEDCLV, the amyloid nucleation score was found to be 1.04 ± 0.46.
The value for TSIFCGSLLGAKVDSTPVPV was -1.27 ± 2.4.
The value for CDEGWEESNSTD was -0.522 ± 1.6; that for RMRRLCVSEGRDLSGECCYM was 0.544 ± 0.3; that for DTKNAWLILSTYLDNLFHIS was 0.976 ± 0.33.
The result for AGFSTHSSGCVGECVGQRT reads 0.32 ± 0.69; that for HGHENVDWQKITDIGGRENC, -0.715 ± 1.9.
For NSMIVAHKLDCACPASAKDR, the amyloid nucleation score amounted to 4.94 ± 0.053.
The result for LLKWLVDAW reads 0.493 ± 0.25; that for MLSYVRIGSDQDVVWSDLQR, 2 ± 0.1.
The value for LSMSCENFHLTQSSEGCSRV was 0.19 ± 0.51; that for FSWADLDRYCISLQNQGPLA was 0.66 ± 0.42; that for YKLPAAIDRMIVVQCNRPSI was -0.246 ± 0.61.
The result for VGWASQKINYWLETSGF reads 0.329 ± 0.68; that for YGSLFED, 0.108 ± 0.77; that for KNPRGENIFLPCLRMGKHLL, -0.776 ± 1.9.
The substance SRNLLPSDTSHQVMYPVSTK came in with an amyloid nucleation score of 0.568 ± 0.28.
The value for INSQSTATN was 0.593 ± 0.31.
The value for LAYGWKFDNSCLL was 1.29 ± 0.68.
The value for KCYGVETTYALA was 0.875 ± 0.97; that for ASSVSMFFYIWFLDAHVGYL was 0.364 ± 0.33.
As to HMSGFWM, the amyloid nucleation score was -0.856 ± 1.7.
The result for SPNCM reads -0.358 ± 1.4; that for MRTVIITCCRTFECPMERCS, -2.56 ± 1.4; that for RSEVEFNTPHLLKCVPDMSF, 0.587 ± 0.42.
The result for EKRLYGYLKDHLE reads -0.605 ± 0.35; that for HRTDRCVVMLHWPWIF, -0.025 ± 0.56; that for VVYIHFAII, 0.439 ± 0.69.
The value for AVFHRREVRELAHRQPLLPI was 1.03 ± 0.66; that for HCSSVQFPRTGVIEVALQKD was -0.17 ± 0.57.
LYAWGVRYSVVMLFSYRGVH registered an amyloid nucleation score of -0.026 ± 1.2.
The result for ILCALMRFLVETLHLINFWK reads -0.278 ± 0.61; that for PQVKTFGVVFVGGMCE, 0.216 ± 0.41.
The result for YRMGLGS reads -0.455 ± 0.96; that for TFTCSFTQLRQLFFFVSQGC, 0.214 ± 0.46.
The result for PAYGTNIVAIYLWH reads 3.59 ± 0.093.
In turn, AINLRLV showed an amyloid nucleation score of 0.23 ± 0.36.
The value for TCVCQFIWG was -0.086 ± 0.79; that for GHYVDLKSLYPPMTCAMACM was -0.125 ± 0.38.
The result for VGWGAMQGLMSGGLYIPV reads -0.671 ± 2.1; that for TSLVVYYTSWV, -1.55 ± 2.4; that for NTSDDYIDLRYNHKGEAFEG, “inactive”.
The value for YIIVLA was 1.28 ± 0.61.
On to DLSNNRWWFNRFRALHYKSS, for which the amyloid nucleation score is -0.358 ± 0.85.
As to EFMYYL, the amyloid nucleation score is -0.979 ± 1.9.
The value for VSSHSMGFIVSVVMTCEYRS was 1.23 ± 0.7; that for ILFFDVSSQGRTEDKVRNLG was 0.088 ± 0.69; that for IKDTGYYLHMIEQPDTLNLW was 0.651 ± 0.53.
The result for GILDTLKVEVLGSVVHS reads 1.01 ± 0.59; that for HQVNSGDLSNMVLCLMLIRW, 1.84 ± 0.19; that for FKLWQVFRKSSMFQRGWGIG, 0.462 ± 0.78.
The result for MRIRAKSALSVSLECDLQFL reads 0.655 ± 0.3; that for LLFSPIFLDSGPHTLWLYMF, 0.491 ± 0.87.
With NLCRIRIARLQHGGRSTMSF, the amyloid nucleation score was 1 ± 0.73.
The result for PLYSYADEVVDGKGSCERNC reads 0.946 ± 0.5; that for NNFSCMDHILSMVKLWDVFG, -0.847 ± 0.59.
The result for RCGRSVVDGLRCFRLRMAFG reads -1.06 ± 1.2.
The result for RCHESARKVTSGMCCSGWC reads 4.12 ± 0.088; that for HLRKVGYSIYLFSR, 3.83 ± 0.057.
As to GGKVGREQTIW, the amyloid nucleation score was -0.123 ± 0.89.
The value for SVVFLQRFLDR was -0.564 ± 1.2; that for CSILF was 0.011 ± 0.75.
The result for VCKGVYNMPCSTPNLYDSAG reads -0.563 ± 0.79; that for VSVFDVWRMQCGNSLVKEGG, -0.088 ± 0.42.
ATRSMEAIIMRELWYIDPVY returned an amyloid nucleation score of 0.831 ± 0.87.
The value for LKARQHFRNHHGMLVQKRWD was “inactive”.
The substance VTRTYLNRMRSMLSGSMFFM returned an amyloid nucleation score of 0.423 ± 0.35.
For the substance TLKHEQAREGFFAM, the amyloid nucleation score was -0.053 ± 0.56.
Take MSHWTMGREWITHLFSGHWG: the amyloid nucleation score was 0.945 ± 1.1.
The result for GANKTWCYKSSQCVISDGLG reads -0.103 ± 0.66.
The result for TWVMFDVWGRVDYER reads 0.169 ± 0.4.
The value for HRRNMAKC was “inactive”.
YRLRQPLPSERSLMEHSCGV gave an amyloid nucleation score of 0.761 ± 0.56.
The result for HGSVRSLSYRLVSLYLSRMC reads 0.748 ± 0.45; that for GFRRGPVSSSV, 0.206 ± 0.67.
The value for EPYSLAIKGVHTLLRGSRKS was 0.571 ± 0.29; that for VVFRGAVREVQGSWESCILA was 0.676 ± 0.52.
The result for GTFALIN reads -1.2 ± 0.68.
Turning to FNWMRP, the amyloid nucleation score is 0.706 ± 0.31.
The value for YNVLCYFLNRFWMGYWYLLS was 1.5 ± 0.5; that for YFAVL was “inactive”.
Turning to GTTVPGFCITKSVKTMGRNQ, the amyloid nucleation score was 0.643 ± 0.39.
Turning to VGCLMWYALCGLE, the amyloid nucleation score came out at 0.347 ± 0.5.
AVMMHDTVGVHW: the amyloid nucleation score is -0.609 ± 0.6.
The result for GCDTQLQMGLFMSYIMNTSV reads -0.621 ± 1.1.
In turn, NRTIFVVRHTDFGYLA showed an amyloid nucleation score of 0.661 ± 0.75.
The result for ARTGCHKVYLAAACSYGRFS reads 0.188 ± 0.34.
In turn, VLYSELLGFRKSIIIMVWTR showed an amyloid nucleation score of -0.015 ± 0.28.
The value for PLFLVVTQMS was 5.25 ± 0.073; that for KSYLLGDGTFNSCTW was 0.107 ± 0.69; that for IYKLLGRVKSMMFLWYTVHS was -0.527 ± 0.52.
The value for PWCFTLFALAPP was -0.077 ± 1.7; that for GTGHVFQCCRMTLLQSSLDG was -0.832 ± 0.88.
The result for DYDRTSFFEDSFVTD reads -0.7 ± 1.1; that for DRRGRRYKVRRVCMVMESLG, 0.703 ± 0.58.
For the substance TLRVVMKWLAHTWFRHTLMR, the amyloid nucleation score was -0.083 ± 0.42.
The value for FHTLDVCPGRVLNLYNVKVW was -0.427 ± 1.
The result for LWVFS reads 0.762 ± 0.7; that for DGTNSVRIASWLNIDEGAL, -0.225 ± 0.42; that for MCWPTDAEDAICTSLK, 2.12 ± 0.11.
In the case of CFDNSFTFPPDG, the amyloid nucleation score was 0.066 ± 0.3.
The value for IFATTIFLLGTRTKLMSG was 0.971 ± 0.65; that for QVRRRVGILRLWFEKWVIGR was 0.372 ± 0.77; that for ILSWSNSGRMNHRPLVYERS was 0.963 ± 0.43.
The result for AGYAYSGIVAGAYWIFCNYE reads 1.12 ± 0.85; that for VRHDITARERLSGLWQ, -0.047 ± 1.1.
The value for SSLASMASVDRKNHRGSGEG was 1.77 ± 0.11; that for LTFNPLTGCNNSQWFDGISG was -1.23 ± 2.1.
Take IFFSCQVGYSAIARDARWTR: the amyloid nucleation score is 2.04 ± 0.14.
The value for HMRMGLGRLVHLWYWPTRDT was 0.153 ± 0.56.
The result for KSQGEVFRVAREGNFIIEES reads -1.07 ± 1.2; that for HRLDLSCSWNMNKVRGDWCS, -0.058 ± 0.27; that for YSAYNRQEDLGLKIVFVLLT, 2.57 ± 0.1.
The value for ERPTNSYGSREILNSYIINF was 5.05 ± 0.084; that for CFCFKPSVKE was -1.71 ± 2.4; that for IGGFASLGYGYIRDVIRVTS was 0.493 ± 0.45.
In the case of WCNRHHDWVVLLAIVAGGEV, the amyloid nucleation score was determined as 0.873 ± 0.64.
The result for DRWWILNGTTDLSLGWVLEC reads 0.648 ± 0.97.
The result for CHMKYFREVVATV reads 0.186 ± 1.1; that for CFPSSVFVGCIFF, 7.532 ± 0.044.
Turning to VACNKLRYMCRCQYNMTVWF, the amyloid nucleation score was -0.262 ± 0.62.
Substance RMSSIKYVMWGHFAIVSTKV registered an amyloid nucleation score of 1.99 ± 0.43.
LCAARNFSL returned an amyloid nucleation score of -0.277 ± 0.5.
The value for MLVRG was -0.351 ± 0.49; that for KRCSFWQTRTVELSFGHPVL was -1.23 ± 2.7; that for YCDAYPGRKTEILVVQLF was 5.6 ± 0.064.
The value for GFGPTIYSFRSSGQGNGLMP was -0.3 ± 0.27.
TIALRMNRINLDFKYCFNSF yielded an amyloid nucleation score of 1.49 ± 0.69.
The value for MPGSTLLSAKMTSLGGTALW was 0.392 ± 0.4; that for KAMCYKMSFCNYDSRVYTED was 4.53 ± 0.06.
The substance SWSPRHELPLGKLRWIWDRG displayed an amyloid nucleation score of 1.03 ± 0.75.
Take HMSHMLLQIYLWLVFWSSGV: the amyloid nucleation score was determined as 1.42 ± 0.66.
The value for SGYSLASVVILLKAVYCLGW was 0.627 ± 0.72; that for SSCYDRVLYAPDRRR was 1.23 ± 0.45.
In turn, RLLASGFLSTRFR had an amyloid nucleation score of 0.143 ± 0.86.
Regarding STRSLSCLFLNRTSHCLGTL, the amyloid nucleation score is -0.721 ± 1.4.
The value for RMVLPVSNLFCAFPGTGGGS was -0.577 ± 0.32; that for TRRSRFW was 1.45 ± 0.35.
